Assay results taken from patent publication US8101390B2, “Mutant-type acetyltransferase Mpr1” (National University Corporation Nara Institute of Science …, priority 2006, dated 2012).
Substitutions are numbered along the chain they refer to. Names may count otherwise.

What was measured:
[1] = molecular target: T1, Saccharomyces cerevisiae N-acetyltransferase Mpr1 variant K63R (lysine 63 to arginine), SEQ ID NO:7 (Saccharomyces cerevisiae, UniProt E9P8D2, K63R); assay: DTNB enzymatic activity (kinetics) of purified K63R mutant-type Mpr1; assay type: biochemical; settings: vs wild-type
T1 sequence (E9P8D2 1-229 K63R): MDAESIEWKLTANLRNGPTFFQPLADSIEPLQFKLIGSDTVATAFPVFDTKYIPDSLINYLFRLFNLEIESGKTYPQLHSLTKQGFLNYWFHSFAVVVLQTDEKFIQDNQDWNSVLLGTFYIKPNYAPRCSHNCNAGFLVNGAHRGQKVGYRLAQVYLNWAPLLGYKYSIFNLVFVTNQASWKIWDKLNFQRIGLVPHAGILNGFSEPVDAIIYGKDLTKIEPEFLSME
Procedure: (§1) JM109 was inoculated in 5 ml of M9CA (CA:0.2%) medium and was cultured at. 37° C. until OD600 of the culture reached 0.7. IPTG was added to the medium to the final concentration of 0.1 mM and cells were further cultured at 18° C. for 18 hours. After the culture, cells were ice-cooled and were collected by centrifugation (8000 rpm, 5 min). Cells were washed by the addition of Lysis buffer. After centrifugation (8000 rpm, 5 min), 5 ml of Lysis buffer was added and cells were suspended therein. The suspension was subjected to ultrasonic disintegrator and was centrifuged (15000 rpm, 10 min). The supernatant was applied onto Ni-NTA column (2 ml of QIAGEN resin suspension) equilibrated with Lysis buffer. The flow-through fraction was collected and the column was washed with 10 ml of wash buffer and then fractions were collected. Further, fractions eluted with 5 ml of elution buffer were used as the purified enzyme.
(§2) Enzymatic activities were measured for the purified wild-type Mpr1 and the purified K63R, F65L/L117V, F65L and L117V-mutant-type Mpr1s. The enzymatic activities were measured according to 5,5′-dithiobis (2-nitrobenzoic acid) (DTNB) method.

[2] = molecular target: T2, Saccharomyces cerevisiae N-acetyltransferase Mpr1 variant F65L (phenylalanine 65 to leucine), SEQ ID NO:8 (Saccharomyces cerevisiae, UniProt E9P8D2, F65L); assay: DTNB enzymatic activity (kinetics) of purified F65L mutant-type Mpr1; assay type: biochemical; settings: vs wild-type
T2 sequence (E9P8D2 1-229 F65L): T1 sequence (E9P8D2 1-229 K63R) with R63K, F65L
Procedure: as §1, §2

[3] = molecular target: T3, Saccharomyces cerevisiae N-acetyltransferase Mpr1 variant L117V (leucine 117 to valine), SEQ ID NO:9 (Saccharomyces cerevisiae, UniProt E9P8D2, L117V); assay: DTNB enzymatic activity (kinetics) of purified L117V mutant-type Mpr1; assay type: biochemical; settings: vs wild-type
T3 sequence (E9P8D2 1-229 L117V): T1 sequence (E9P8D2 1-229 K63R) with R63K, L117V
Procedure: as §1, §2

[4] = molecular target: T4, Saccharomyces cerevisiae N-acetyltransferase Mpr1, wild-type, SEQ ID NO:1 (Saccharomyces cerevisiae, UniProt E9P8D2); assay: DTNB enzymatic activity (kinetics) of purified wild-type Mpr1; assay type: biochemical; settings: 30° C., […]-0.15 mM acetyl-CoA
T4 sequence (E9P8D2 1-229): T1 sequence (E9P8D2 1-229 K63R) with R63K
Procedure: as §1, §2

[5] = substrate: O=C(O)[C@@H]1CCN1; assay: DTNB enzymatic activity (kinetics) of purified L117V mutant-type Mpr1; assay type: biochemical, Saccharomyces cerevisiae; settings: other: L117V, 30° C., DTNB method, 0.5 mM-5 mM AZC
[6] = substrate: CC(=O)SCCNC(=O)CCNC(=O)[C@H](O)C(C)(C)COP(=O)(O)OP(=O)(O)OC[C@H]1O[C@@H](n2cnc3c(N)ncnc32)[C@H](O)[C@@H]1OP(=O)(O)O; assay: as above; assay type: biochemical, Saccharomyces cerevisiae; settings: other: L117V, 30° C., DTNB method, […]-0.15 mM acetyl-CoA
[7] = substrate: O=C(O)[C@@H]1CCN1; assay: DTNB enzymatic activity (kinetics) of purified wild-type Mpr1; assay type: biochemical, Saccharomyces cerevisiae; settings: other: wild-type, 30° C., DTNB method, 0.5 mM-5 mM AZC
[8] = substrate: O=C(O)[C@@H]1CCN1; assay: DTNB enzymatic activity (kinetics) of purified K63R mutant-type Mpr1; assay type: biochemical, Saccharomyces cerevisiae; settings: other: K63R, 30° C., DTNB method, 0.5 mM-5 mM AZC
[9] = substrate: CC(=O)SCCNC(=O)CCNC(=O)[C@H](O)C(C)(C)COP(=O)(O)OP(=O)(O)OC[C@H]1O[C@@H](n2cnc3c(N)ncnc32)[C@H](O)[C@@H]1OP(=O)(O)O; assay: as above; assay type: biochemical, Saccharomyces cerevisiae; settings: other: K63R, 30° C., DTNB method, […]-0.15 mM acetyl-CoA
[10] = substrate: O=C(O)[C@@H]1CCN1; assay: DTNB enzymatic activity (kinetics) of purified F65L/L117V mutant-type Mpr1; assay type: biochemical, Saccharomyces cerevisiae; settings: other: F65L/L117V, 30° C., DTNB method, 0.5 mM-5 mM AZC
[11] = substrate: CC(=O)SCCNC(=O)CCNC(=O)[C@H](O)C(C)(C)COP(=O)(O)OP(=O)(O)OC[C@H]1O[C@@H](n2cnc3c(N)ncnc32)[C@H](O)[C@@H]1OP(=O)(O)O; assay: as above; assay type: biochemical, Saccharomyces cerevisiae; settings: other: F65L/L117V, 30° C., DTNB method, […]-0.15 mM acetyl-CoA
[12] = substrate: O=C(O)[C@@H]1CCN1; assay: DTNB enzymatic activity (kinetics) of purified F65L mutant-type Mpr1; assay type: biochemical, Saccharomyces cerevisiae; settings: other: F65L, 30° C., DTNB method, 0.5 mM-5 mM AZC
[13] = substrate: CC(=O)SCCNC(=O)CCNC(=O)[C@H](O)C(C)(C)COP(=O)(O)OP(=O)(O)OC[C@H]1O[C@@H](n2cnc3c(N)ncnc32)[C@H](O)[C@@H]1OP(=O)(O)O; assay: as above; assay type: biochemical, Saccharomyces cerevisiae; settings: other: F65L, 30° C., DTNB method, […]-0.15 mM acetyl-CoA

O=C(O)[C@@H]1CCN1 [AZC, azetidine-2-calboxylate]
Km value, change in words [1]: decreased | Km value for AZC, change in words [2]: decreased

CC(=O)SCCNC(=O)CCNC(=O)[C@H](O)C(C)(C)COP(=O)(O)OP(=O)(O)OC[C@H]1O[C@@H](n2cnc3c(N)ncnc32)[C@H](O)[C@@H]1OP(=O)(O)O [Acetyl-CoA, acetyl-CoA]
Km value for acetyl-CoA, change in words [3]: decreased | Km value, change in words [1]: decreased | Vmax (Acetyl-CoA) [4]: 64.5 ± 1.29 U/mg | kcat (Acetyl-CoA) [4]: 31.2 ± 0.63 s⁻¹

B1: Saccharomyces cerevisiae N-acetyltransferase Mpr1 variant L117V (leucine 117 to valine), SEQ ID NO:9 (Saccharomyces cerevisiae; L117V) (protein)
chain: T1 sequence (E9P8D2 1-229 K63R) with R63K, L117V
Km [5]: 1400 ± 130 µM | Vmax [5]: 98.5 ± 3.34 U/mg | kcat [5]: 47.6 ± 1.61 s⁻¹ | kcat/Km [5]: 32500 ± 2580 M⁻¹ s⁻¹ | Km [6]: 7.63 ± 2.03 ↓ μM | Vmax [6]: 79.4 ± 1.54 U/mg | kcat [6]: 38.4 ± 0.74 s⁻¹ | kcat/Km [6]: 5e+06 ± 1.17e+06 M⁻¹ s⁻¹

B2: Saccharomyces cerevisiae N-acetyltransferase Mpr1, wild-type, SEQ ID NO:1 (Saccharomyces cerevisiae) (protein)
chain: T1 sequence (E9P8D2 1-229 K63R) with R63K
Km [7]: 1600 ± 90 µM | Vmax [7]: 74.76 ± 1.27 U/mg | kcat [7]: 36.1 ± 1.53 s⁻¹ | kcat/Km [7]: 22400 M⁻¹ s⁻¹

B3: Saccharomyces cerevisiae N-acetyltransferase Mpr1 variant K63R (lysine 63 to arginine), SEQ ID NO:7 (Saccharomyces cerevisiae; K63R) (protein)
chain: T1 sequence (E9P8D2 1-229 K63R)
Km [8]: 1.2 ± 0.17 ↓ mM | Vmax [8]: 72 ± 2.98 U/mg | kcat [8]: 30.6 ± 1.44 s⁻¹ | kcat/Km [8]: 24800 M⁻¹ s⁻¹ | Km [9]: 8.0 ± 2.84 ↓ μM | Vmax [9]: 62.4 ± 1.94 U/mg | kcat [9]: 26.5 ± 0.94 s⁻¹ | kcat/Km [9]: 3.3e+06 ± 1.09e+06 M⁻¹ s⁻¹

B4: Saccharomyces cerevisiae N-acetyltransferase Mpr1 variant F65L/L117V, SEQ ID NO:10 (Saccharomyces cerevisiae; F65L/L117V) (protein)
chain: T1 sequence (E9P8D2 1-229 K63R) with R63K, F65L, L117V
Km [10]: 1800 ± 190 µM | Vmax [10]: 79.4 ± 1.05 U/mg | kcat [10]: 38.4 ± 2.18 s⁻¹ | kcat/Km [10]: 21300 M⁻¹ s⁻¹ | Km [11]: 13.3 ± 1.67 µM | Vmax [11]: 64.9 ± 0.36 U/mg | kcat [11]: 31.4 ± 0.17 s⁻¹ | kcat/Km [11]: 2.3e+06 M⁻¹ s⁻¹

B5: Saccharomyces cerevisiae N-acetyltransferase Mpr1 variant F65L (phenylalanine 65 to leucine), SEQ ID NO:8 (Saccharomyces cerevisiae; F65L) (protein)
chain: T1 sequence (E9P8D2 1-229 K63R) with R63K, F65L
Km [12]: 0.7 ± 0.15 ↓ mM | Vmax [12]: 65.0 ± 2.74 U/mg | kcat [12]: 31.4 ± 1.33 s⁻¹ | kcat/Km [12]: 45500 ± 8630 M⁻¹ s⁻¹ | Km [13]: 10.3 ± 1.46 µM | Vmax [13]: 63.7 ± 3.34 U/mg | kcat [13]: 30.8 ± 0.61 s⁻¹ | kcat/Km [13]: 2.9e+06 M⁻¹ s⁻¹
